The term Kd denotes the constant that tells how readily two partners part at equilibrium. In general, koff refers to the first-order rate constant of dissociation. Low readings indicate slow dissociation, high ones fast dissociation. What is called kon is a measure of how fast the partners come together. The EC50 is the concentration giving half of the maximal effect.

The results in this text go back to patent KR20230010676A (dated 2023).

Like-named read-outs stand apart in the source and are kept apart here.

One test has as its target SARS-CoV-2 스파이크 단백질 (SARS-CoV-2, UniProt P0DTC2 14-1273). The experiment in a line: cell-based or functional assay.
Test [1] addresses T1, SARS-CoV RBD (Sino Biological) (SARS-CoV (SARS-CoV-1), UniProt P59594 306-527).
T1 construct: domain: RBD; also called SARS-CoV-1 RBD; SARS-CoV-1 스파이크 단백질 RBD
The test can be described thus: ELISA, RBD coated on plate.

The target in test [2] is T2, SARS-CoV-2 RBD (정제된, SPR) (SARS-CoV-2 (Wuhan-Hu-1), UniProt P0DTC2 331-550). The experiment in a line: SPR, Biacore T200, single-cycle kinetics, antibody captured, RBD injected.
The target in test [3] is T2, SARS-CoV-2 RBD (정제된, SPR).
Test [4] addresses T2, SARS-CoV-2 RBD (정제된, SPR). The experiment in a line: SPR, Biacore T200; ratio against S2E12 WT. For orientation: In SPR one partner is held on a chip, and binding of the other changes the refractive index at the surface.
Test [5] has as its target T2, SARS-CoV-2 RBD (정제된, SPR). This is another data set of the same source.
The target of test [6] is T3, SARS-CoV-2 RBD (자체 생산, BetaCoV/Wuhan-Hu-1/2019 스파이크의 잔기 331 내지 550, 수탁 번호 MN908947) (SARS-CoV-2 (BetaCoV/Wuhan-Hu-1/2019), UniProt P0DTC2 331-550).
T3 construct: range 331-550; also called SARS-CoV-2 스파이크 단백질 RBD
The test can be described thus: ELISA, RBD coated on plate, serial dilutions of recombinant mAb. (ELISA stands for enzyme-linked immunosorbent assay.)

Test [7] addresses T2, SARS-CoV-2 RBD (정제된, SPR). The test can be described thus: SPR, Biacore T200; ratio against S2E12 WT. The source holds these as a separate data set.
For test [8], the target named is T3, SARS-CoV-2 RBD (자체 생산, …). The experiment in a line: ELISA, RBD coated on plate, serial dilutions of recombinant mAb. This is another data set of the same source.
Test [9] addresses T1, SARS-CoV RBD (Sino Biological). The description is as above.

B1: S2X16 (antibody, V domains shown)
VH: EVQLVQSGAEVKKPGASVKVSCKASGYIFTDHYMHWVRQAPGQGLEWMGWINPNSGGTNYAQKFQGRVTMTRDTSINTAYMELSRLRSDDTAVHYCARDRSRFRFFSPDFDYWGQGTLVTVSS
VL: not shown
notes: also called S2X16-11
Consider B1, for which, in the test with SARS-CoV-2 스파이크 단백질, the “IC50 (neutralisation)” value worked out at 0.006 µg/mL, the “IC80 (neutralisation)” value was 0.022 µg/mL and the “IC90 (neutralisation)” value turned out to be 0.046 µg/mL. In [1], the binding result is “no binding”.

B2: S2E12 (antibody, V domains shown)
VH: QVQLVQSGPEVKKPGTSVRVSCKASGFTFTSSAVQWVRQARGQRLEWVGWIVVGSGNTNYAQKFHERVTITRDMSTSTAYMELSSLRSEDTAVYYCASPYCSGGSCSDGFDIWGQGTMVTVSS
VL: DIVLTQTPGTLSLSPGERATLSCRASQSVSSSYLAWYQQKPGQAPRLLIYGASSRATGIPDRFSGSGSGTDFTLTISRLEPEDFAVYYCQQYVGLTGWTFGQGTKVEIK
notes: also called S2E12 WT; S2E12 wt
In test [2], B2 gave a Kd of 1.18 nM, a koff of 0.00233 s⁻¹ and a kon of 1.98e+06 M⁻¹ s⁻¹. Besides, in [3], binding was characterised by a dissociation constant (Kd) of 2.28 nM. Moreover, the KD_WT/KD in test [4] was 1. In test [5], this molecule had a Kd of 1.31 nM, a koff of 0.00317 s⁻¹ and a kon of 2.42e+06 M⁻¹ s⁻¹. Moreover, the EC50 in test [6] was 0.0434 µg/mL.

B3: 409_11_4_v3 (antibody, V domains shown)
VH: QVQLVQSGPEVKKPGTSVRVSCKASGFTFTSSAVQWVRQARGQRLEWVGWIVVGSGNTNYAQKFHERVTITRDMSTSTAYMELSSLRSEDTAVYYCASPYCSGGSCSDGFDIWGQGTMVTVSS
VL: DIVLTQTPGTLSLSPGERATLSCRASQSVSSSYLAWYQQKPGQAPRLLIYGASSRATGIPDRFSGSGSGTDFTLTISRLEPEDFAVYYCQQYVGLTGFTFGQGTKVEIK
With B3, in [2], binding was characterised by a dissociation constant (Kd) of 13 nM, the koff was 0.0153 s⁻¹ and the kon worked out at 1.18e+06 M⁻¹ s⁻¹. Moreover, the KD/KD_WT in test [7] amounted to 0.1.

B4: 409_11_4_v4 (antibody, V domains shown)
VH: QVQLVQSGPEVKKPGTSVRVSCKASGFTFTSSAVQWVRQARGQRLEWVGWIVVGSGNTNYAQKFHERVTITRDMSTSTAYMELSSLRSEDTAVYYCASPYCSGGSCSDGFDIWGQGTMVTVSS
VL: DIVLTQTPGTLSLSPGERATLSCRASQSVSSSYLAWYQQKPGQAPRLLIYGASSRATGIPDRFSGSGSGTDFTLTISRLEPEDFAVYYCQQYVGLTGYTFGQGTKVEIK
In test [3], B4 displayed a Kd of 25.9 nM. Also, the KD_WT/KD in [4] was 0.09.

B5: 409_11_4_v5 (antibody, V domains shown)
VH: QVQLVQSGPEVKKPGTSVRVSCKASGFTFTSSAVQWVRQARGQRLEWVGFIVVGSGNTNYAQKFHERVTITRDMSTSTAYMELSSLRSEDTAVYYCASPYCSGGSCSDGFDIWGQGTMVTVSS
VL: DIVLTQTPGTLSLSPGERATLSCRASQSVSSSYLAWYQQKPGQAPRLLIYGASSRATGIPDRFSGSGSGTDFTLTISRLEPEDFAVYYCQQYVGLTGWTFGQGTKVEIK
In test [2], B5 returned a Kd of 13.3 nM, a koff of 0.0358 s⁻¹ and a kon of 2.68e+06 M⁻¹ s⁻¹. The KD/KD_WT in test [7] was determined as 0.098.

B6: 409_11_4_v6 (antibody, V domains shown)
VH: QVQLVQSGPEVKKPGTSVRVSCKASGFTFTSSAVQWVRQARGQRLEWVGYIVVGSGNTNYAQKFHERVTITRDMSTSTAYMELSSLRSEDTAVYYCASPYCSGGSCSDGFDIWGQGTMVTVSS
VL: DIVLTQTPGTLSLSPGERATLSCRASQSVSSSYLAWYQQKPGQAPRLLIYGASSRATGIPDRFSGSGSGTDFTLTISRLEPEDFAVYYCQQYVGLTGWTFGQGTKVEIK
With B6, in [3], the Kd is 20.4 nM. The KD_WT/KD in [4] is 0.11.

B7: 409_11_4_v13 (antibody, V domains shown)
VH: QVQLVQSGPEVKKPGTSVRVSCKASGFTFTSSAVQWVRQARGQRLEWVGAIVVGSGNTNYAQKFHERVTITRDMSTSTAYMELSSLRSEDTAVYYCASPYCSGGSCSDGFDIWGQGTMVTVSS
VL: DIVLTQTPGTLSLSPGERATLSCRASQSVSSSYLAWYQQKPGQAPRLLIYGASSRATGIPDRFSGSGSGTDFTLTISRLEPEDFAVYYCQQYVGLTGWTFGQGTKVEIK
For the molecule B7, in test [3], the affinity, expressed as Kd, was 51.4 nM. The KD_WT/KD in [4] turned out to be 0.04.

B8: 409_11_4_v7 (antibody, V domains shown)
VH: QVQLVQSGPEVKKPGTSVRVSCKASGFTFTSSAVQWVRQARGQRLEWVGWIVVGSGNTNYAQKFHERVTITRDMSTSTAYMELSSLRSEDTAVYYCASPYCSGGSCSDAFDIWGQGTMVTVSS
VL: DIVLTQTPGTLSLSPGERATLSCRASQSVSSSYLAWYQQKPGQAPRLLIYGASSRATGIPDRFSGSGSGTDFTLTISRLEPEDFAVYYCQQYVGLTGWTFGQGTKVEIK
Regarding B8, in test [2], the Kd was 4.9 nM, the koff stood at 0.00913 s⁻¹ and the kon is 1.86e+06 M⁻¹ s⁻¹. In addition, the KD/KD_WT in test [7] is 0.267.

B9: 409_11_4_v2 (antibody, V domains shown)
VH: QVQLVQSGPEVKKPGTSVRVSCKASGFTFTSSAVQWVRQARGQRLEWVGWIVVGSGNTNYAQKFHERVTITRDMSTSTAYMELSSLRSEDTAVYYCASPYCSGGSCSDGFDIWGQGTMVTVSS
VL: DIVLTQTPGTLSLSPGERATLSCRASQSVSSSYLAWYQQKPGQAPRALIYGASSRATGIPDRFSGSGSGTDFTLTISRLEPEDFAVYYCQQYVGLTGWTFGQGTKVEIK
notes: also called S2E12-v2
As for B9, binding in test [3] was put at a Kd of 0.788 nM. In test [4], the KD_WT/KD is 2.89.

B10: 409_11_4_v12 (antibody, V domains shown)
VH: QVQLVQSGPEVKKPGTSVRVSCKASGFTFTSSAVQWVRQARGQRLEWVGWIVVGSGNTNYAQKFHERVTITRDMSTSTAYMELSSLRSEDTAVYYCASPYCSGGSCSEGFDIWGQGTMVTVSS
VL: DIVLTQTPGTLSLSPGERATLSCRASQSVSSSYLAWYQQKPGQAPRLLIYGASSRATGIPDRFSGSGSGTDFTLTISRLEPEDFAVYYCQQYVGLTGWTFGQGTKVEIK
In the case of B10, the dissociation constant (Kd) in [3] is 45.3 nM. In addition, the KD_WT/KD in test [4] is 0.05.

B11: S2X47 (antibody, V domains shown)
VH: QVQLQESGPGLVKPSQTLSLTCTVSGGSISSRSYYWSWIRQPAGKGLEWIGRIYTSGNTNYNPSLRSRVTISVDTSKNQFSLKLGSVTAADTAVYYCARERIIGTAHVGGWFDPWGQGTLVTVSS
VL: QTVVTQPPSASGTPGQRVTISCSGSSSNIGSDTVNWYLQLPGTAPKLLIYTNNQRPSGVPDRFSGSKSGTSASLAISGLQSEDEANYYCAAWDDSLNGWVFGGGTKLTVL
notes: also called S2X47-11
In the case of B11, in the test with SARS-CoV-2 스파이크 단백질, the “IC50 (neutralisation)” value worked out at 0.003 µg/mL, the “IC80 (neutralisation)” value stood at 0.012 µg/mL and the “IC90 (neutralisation)” value turned out to be 0.025 µg/mL. Besides, in test [1], the binding result is “no binding”. Also, in test [8], the EC50 is 0.092 µg/mL.

B12: S2X35 (antibody, V domains shown)
VH: QVQLVQSGAEVKKPGASVKVSCKASGYTFTNYGISWVRQAPGQGLEWMGWISAYKGNTNYAQKLQGRVTMTTDTSTSTAYMELRSLRSDDTAVYYCARPDYQVLGYDFWIGYYGMDVWGQGTTVIVSS
VL: QSVLTQPPSVSGAPGQRVTISCTGSSSNIGAGYDVHWYQQLPGTAPKLLIYGNTNRPSGVPDRFSGSKSGTSASLAITGLQAEDEADYYCQSYDSSLSGSEVVFGGGTKLTVL
notes: also called S2X35-11
On to B12, for which, in the test with SARS-CoV-2 스파이크 단백질, the “IC50 (neutralisation)” value came out at 0.092 µg/mL, the “IC80 (neutralisation)” value was found to be 0.32 µg/mL and the “IC90 (neutralisation)” value was 0.661 µg/mL. For the same molecule, the EC50 in test [9] came out at 0.0846 µg/mL. In test [8], the EC50 stood at 0.0483 µg/mL.

B13: S2X30 (antibody, V domains shown)
VH: EVQLVQSGAEVKKPGSSVKVSCKASGGTFGSYTISWVRQAPGQGLEWMGRIIPILSIPNYAQKFQGRVTFTADKSTSTAYMELSSLRSEDTAVYYCARGGGGTHAVPHYYFDSWGQGTLVTVSS
VL: EIVMMQSPATLSVSPGERATLSCRASQSVSSNLAWYQHKPGQAPRLLIYGASTRATGIPARFSGSGSGTEFTLTISSMQSEDFAVYYCQQYNNWPFTFGGGTKVEIK
notes: also called S2X30-11
With B13, in the test with SARS-CoV-2 스파이크 단백질, the “IC50 (neutralisation)” value was 0.015 µg/mL, the “IC80 (neutralisation)” value was 0.031 µg/mL and the “IC90 (neutralisation)” value was determined as 0.046 µg/mL. Further, the binding result in [1] is reported as “no binding”.
